We go through 1 substance from publication PMC10726167.

As a reminder, the stoichiometry N is a count of units in the complex or per binding partner.

For this assay, the target named is FIV Pr50^Gag-His6-tagged protein (feline immunodeficiency virus Gag precursor polyprotein) (feline immunodeficiency virus (Petaluma strain 34TF10)). The experiment in a line: dynamic light scattering; purified Pr50^Gag in solution, HEPES-KOH buffer (pH 8); hydrodynamic radius from volume and number distribution.

With “FIV Pr50^Gag-His6-tagged protein (feline immunodeficiency virus Gag precursor polyprotein) (natural protein)”, the stoichiometry N was 2.
